Experiments:
Format in all cases: cell-based, mouse
olfr62 [1] = experiment: CRE-luciferase reporter gene assay, olfr62; settings: 293T cells expressing RTP1 variant
How it was run: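 Receptor-transfected 293T cells carrying CRE-luciferase plus SV40-Renilla control, switched to CD293 medium 12 h post-transfection, then exposed to odorants for 4 h at 37 °C. Signal is dual-luciferase normalized activity, [Luc(N) − Luc(0)]/Renilla.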

olfr62 [2] = experiment: Living-cell staining of cell-surface olfr62; settings: accessory protein co-transfected in 293T cells
Method: The proteins encoded by these clones were named REEP1, for Receptor Expression Enhancing Protein 1 and RTP1, for Receptor Transporting Protein 1. Subsequently, RTP2 was found, a close relative of RTP1. […] Next, REEP1, RTP1, and RTP2 were tested to detect a similar effect in promoting cell-surface expression of other ORs. Four different ORs (mouse OREG, mouse olfr62, mouse OR-S46 and rat I7) were expressed in 293T cells with or without REEP1, RTP1, or RTP2. […] Additionally, ORs transfected with REEP and/or RTP generated more immunofluorescent cells and stronger signals in positive cells compared with ORs without REEP and/or RTP (see FIG. 2A). The signal intensity and the number of immunopositive cells varied when using different ORs at each condition. […] Nonetheless, occasional immunopositive cells were observed only when the accessory proteins were co-expressed. The effects of RTP1 or RTP2 were consistently more robust than that of REEP1. The enhancement of cell-surface expression was specific for ORs and not for other GPCRs: neither REEP and/or RTP enhanced expression of the β2 adrenergic receptor, mT2R5 (a mouse bitter taste receptor) (see, e.g., Chandrashekar, J., et al. (2000) Cell 100, 703-711; herein incorporated by reference in its entirety), or a V2R pheromone receptor (VR4) (see, e.g., Matsunami, H., and Buck, L. B. (1997) Cell 90, 775-784; herein incorporated by reference in its entirety) (see FIG. 2A and FIG. 3). Finally, enhancement of cell-surface expression of MOR203-1 was not observed when other members of the REEP and RTP families (REEP2 and RTP4) were co-expressed.
(§1) 293T cells were maintained in minimal essential medium containing 10% fetal bovine serum (M10). Lipofectamine 2000 (Invitrogen) was used for transfection. In live-cell staining, 16 hours after transfection, cells were incubated in M10 containing anti rhodopsin antibody, 4D2 (see, e.g., Laird, D. W., and Molday, R. S. (1988) Invest Opthalmol V is Sci 29, 419-428; herein incorporated by reference in its entirety) and 15 mM NaN3 at 4 degrees C. for 1 hour. After washing, cells were incubated with Cy3-conjugated anti mouse IgG (Jackson Immunologicals), washed and mounted. For FACS analysis, 4D2 and PE-conjugated anti mouse IgG (Jackson Immunologicals) were used to monitor the Rho tagged receptor expression. Anti HA rabbit antibodies (Sigma) and Alexa 488 conjugated anti rabbit IgG (Molecular Probes) was used to stain the HA-β2 adrenergic receptor. To establish the Hana3a cells, 1 ug/ml of puromycin was used for selection. 96 colonies were picked and assayed using luciferase assay using OREG.

S6 = experiment: Living-cell staining of cell-surface S6; settings: accessory protein co-transfected in 293T cells
Method: as §1

OLFR62 activity as indicated by luciferase expression (olfr62 [1]): Increased enhancement
B1: RTP1-A1: RTP1 variant from deleting portions of RTP1-A; murine SEQ ID NO: 46, human SEQ ID NO: 47 (protein, listed as Mus musculus)
chain: MCKSVTTGEWKKVFYEKMEEVKPADSWDFIIDPNLKHNVLAPGWKQYLELHASGRFHCSWCWHTWQSPHVVILFHMYLDKAQRAGSVRMRVFKQLCYECGTARLDESSMLEENIESLVDNLITSLREQCYGERGGHYRIHVASRQDNRRHRGEFCEACQEGIVHWKPSEKLLEEEATTYTFSRAPSPTKPQAETGSGCNFCSIPWCLFWATVLMLIIYLQFSFRTSV
cell-surface expression of olfr62 (olfr62 [2]): Increased cell-surface staining
cell-surface expression of S6 (S6): Increased cell-surface staining
